What was measured:
[1] = tested on: NOD mice; assay: Type 1 diabetes incidence in NOD mice (blood glucose monitoring); format: in vivo, mouse; settings: for mice that developed T1D: 100 ug/dose
Method: The effect of C1ORF32 ECD-Fc treatment on modulation of disease incidence was tested in NOD mice, which spontaneously develop a T1D disease. In NOD mice, autoreactive CD4+ can be observed within the β-islets as early as 2 weeks of age (Yang et al., Immunity 1996 February; 4(2):189-94), and by 10 weeks of age, when the treatment with C1ORF32 ECD-Fc (SEQ ID NO: 42) began in the present experiments, NOD mice develop peri-insulitis and β-cell loss (Jimeno et al., Immunology and Cell Biology. (2010) 88, 734-745).
Materials: C1ORF ECD-Fc (SEQ ID NO:42) was used in these studies, as described below. Control Ig was mouse IgG2a from BioXcell (Cat# BE0085). NOD mice were purchased from Jackson labs, and blood glucose was measured via sampling a small drop of blood from the tail vein.
Methods: Six week old NOD mice were purchased from Jackson labs. At 10 weeks of age, mice were split into groups and treated with either vehicle (PBS) Control Ig or C1ORF ECD-Fc (SEQ ID NO:42) as detailed below. Treatment was given via IP injections 3×/wk/2 wks. Blood glucose levels were monitored weekly from 8 weeks of age until the mice reached […] of age as detailed below. Mice were considered diabetic upon having two consecutive blood glucose readings of >250 mg/dL. Diabetic mice were sacrificed on the day of the second high glucose level reading. Blood glucose levels were obtained from the tail vein, and the level of blood glucose measured via use of a OneTouch. UltraSmart. Blood Glocuse Monitoring System (OneTouch; Johnson & Johnson; New Brunswick, N.J.) in a blinded manner. This study was carried out 3 times; For study 3 proteins were provided coded.
Treatment groups (n=5 mice/group): 1. Control Ig (mouse IgG2a), 100 ug/dose 2. C1ORF ECD-Fc (SEQ ID NO:42), 100 ug/dose.
Treatment groups (n=14-15): 1. Control Ig (mouse IgG2a; BioXcell) (100 ug/dose) 2. C1ORF ECD-Fc (SEQ ID NO:42) (100 ug/dose)

[2] = tested on: Male DBA/1O1aHsd mice; assay: CIA model, early stage treatment from day 18; format: in vivo, mouse
Source text: The aim of this study was to estimate the effect of C1ORF32-P8-V1-ECD-mFc (SEQ ID NO:42) on disease development in a type II Collagen induced arthritis (CIA) mouse model upon administration at early stage of disease; i.e., when specific and predictive markers for RA development are present in the serum, but before onset of clinical symptoms.
In the CIA model, arthritis is induced by immunization with type II collagen in CFA on day 1 which is followed by boosting with type II collagen in CFA on day 21. Antibodies against both CII and cyclic citrullinated peptide (CCPs) appear early after immunization, before joint swelling is observed.
To evaluate the effect of early stage treatment with C1ORF32-P8-V1-ECD-mFc (SEQ ID NO:42) on disease development treatment started on day 18 and was given IP injection, Q2D to mice from day 18 until day 32.
Male DBA/1O1aHsd mice weighing 16-25 grams (mean 22 g) on day 18 of the study were obtained from Harlan, Inc., Indianapolis, Ind. Mice (10/group) were anaesthetized with Isoflurane, shaved at the base of the tail, and injected intradermally with 150 μl of Freund's Complete Adjuvant (Sigma) containing bovine type II collagen (Elastin Products, Owensville, Mo.) (2 mg/me at the base of the tail on day 0 and again on day 21. On study day 18, mice were randomized by body weight into treatment groups. Treatment was initiated after enrollment and continued every other day (Q2D at 48 h intervals) through study day 33. On study days 23-34, onset of arthritis occurred. Mice were terminated on study day 34. Clinical scores were given for each of the paws (right front, left front, right rear, left rear) on arthritis days 18-34.
Mice were weighed on study days 18, 20, 22, 24, 26, 28, 30, 32 and 34 (prior to necropsy). […]

[3] = tested on: total splenocytes; assay: Ex vivo recall responses of splenocytes, week 8 post bone marrow transplant; format: cell-based, mouse
Method: (§1) On week 8 post bone marrow cell transplantion, total splenocytes (5×10^5 cells/well) were cultured in the presence of medium alone (no stimulation), anti-CD3 (1 ug/ml), DBY peptide (10 ug/ml), irradiated male splenocytes (5×10^5 cells/well), or irradiated female splenocytes (5×10^5 cells/well). The individual splenocyte samples were cultured separately in triplicate wells. For T cell proliferative response, the cultures were pulsed with 1 uCi of tritiated thymidine at 24 hours and harvested at 72 hours post culture initiation. The statistical analysis carried out on the data is one-way ANOVA followed by Dunnett's post test as compared to the mice receiving male CD45.1+ bone marrow cells plus Control Ig treatment, p-values*<0.05, **<0.01,***<0.001, and #<0.0001.
as §1, with “transplant,” for “transplantion,”, “For” for “For T cell proliferative response,”, “cytokine cultures, the supernatants” for “cultures”, “collected” for “pulsed with 1 uCi of tritiated thymidine at 24 hours and harvested”, “initiation and the level of secreted cytokine was determined via LiquiChip.” for “initiation.”
These same populations of cells were analyzed at week 8 within the spleen. In addition, the proliferative and secreted cytokine responses of total splenocytes in ex vivo recall cultures were tested in the presence of medium alone, anti-CD3 (1 ug/ml), the HY antigen DBY peptide (NAGFNSNRANSSRSS; Genemed Synthesis; San Antonio, Tex.) (10 ug/ml), irradiated male splenocytes (1:1 ratio), or irradiated female splenocytes (1:1 ratio).

[4] = combined data from all 3 studies

B1: C1ORF32 ECD-Fc (SEQ ID NO:42): fusion protein of human C1ORF32 ECD fused to mouse immunoglobulin Fc (human-mouse fusion protein) (protein)
chain: LQVTVPDKKKVAMLFQPTVLRCHFSTSSHQPAVVQWKFKSYCQDRMGESLGMSSTRAQSLSKRNLEWDPYLDCLDSRRTVRVVASKQGSTVTLGDFYRGREITIVHDADLQIGKLMWGDSGLYYCIITTPDDLEGKNEDSVELLVLGRTGLLADLLPSFAVEIMGSENLYFQGSGEPRGPTIKPCPPCKCPAPNLLGGPSVFIFPPKIKDVLMISLSPIVTCVVVDVSEDDPDVQISWFVNNVEVHTAQTQTHREDYNSTLRVVSALPIQHQDWMSGKEFKCKVNNKDLPAPIERTISKPKGSVRAPQVYVLPPPEEEMTKKQVTLTCMVTDFMPEDIYVEWTNNGKTELNYKNTEPVLDSDGSYFMYSKLRVEKKNWVERNSYSCSVVHEGLHNHHTTKSFSRTPGK
modifications: Fusion protein human C1ORF32-ECD fused to mouse IgG2a Fc
mice prevented from developing full blown autoimmune diabetes ([1]; NOD mice, overall statement): 77%
mice that did not develop T1D ([1]; Study I, n=5, 100 ug/dose IP 3x/wk for 2 wks from 10 wks of age): 3 out of 5
mice that developed T1D ([1]; Study II, n=6): 1 out of 6
mice that developed T1D ([1]; Study III, n=14-15, by the age of 24 weeks): 3 out of 15
mice in which T1D was observed [1, 4]: 6 out of 26
percent of mice in which T1D was observed [1, 4]: 23%
effect of the lower dose ([2]; 3.3 mg/kg IP Q2D): No effect
clinical arthritis score ([2]; 10 mg/kg IP Q2D from day 18, vs PBS or mIgG2a, did not reach significance): inhibition of clinical arthritis score
body weight loss (percent change from baseline) ([2]; 10 mg/kg, from study day 30 until termination, data not shown): significantly inhibited toward normal
inflammatory cytokines (IFN-gamma, IL-17, GM-CSF, IL-12, IL-2 and TNF-alpha) ([3]; activation with male irradiated splenocytes or DBY peptide, vs Ig control treated mice): significantly lower levels
IFNg, IL-17, IL-2, IL-12 and GM-CSF secretion ([3]; cultures stimulated with male irradiated splenocytes): inhibitory trend
level of IL-10 and IL-4 secreted ([3]; splenocytes of treated mice, in response to male or female splenocytes): significantly increased
